This note sets out measurements from US10704056B2, “Constitutively active ABA receptor mutants” (The Regents of the University of California, priority 2011, dated 2020).

To fix the notation:
B1: PYL9^CA4: PYL9 mutant (V85F, Y160I, F161V) (protein)
chain: HHHHHHMMDGVEGGTAMYGGLETVQYVRTHHQHLCRENQCTSALVKHIKAPLHLVWSLVRRFDQPQKYKPFVSRCTVIGDPEIGSLREVNFKSGLPATTSTERLELLDDEEHILGIKIIGGDHRLKNYSSILTVHPEIIEGRAGTMVIESFVVDVPQGNTKDETCIVVEALIRCNLKSLADVSERLASQDITQ
B2: T162F: PYR1 receptor mutant with amino acid substitution T162F (protein)
chain: MPSELTPEERSELKNSIAEFHTYQLDPGSCSSLHAQRIHAPPELVWSIVRRFDKPQTYKHFIKSCSVEQNFEMRVGCTRDVIVISGLPANTSTERLDILDDERRVTGFSIIGGEHRLTNYKSVTTVHRFEKENRIWTVVLESYVVDMPEGNSEDDTRMFADFVVKLNLQKLATVAEAMARNSGDGSGSQVT
modifications: synthetic mutated PYR/PYL receptor polypeptide PYR1 T162F
B3: PYR1^CA3: PYR1 triple mutant (H60P, V83F, F159V) (protein)
chain: HHHHHHMPSELTPEERSELKNSIAEFHTYQLDPGSCSSLHAQRIHAPPELVWSIVRRFDKPQTYKPFIKSCSVEQNFEMRVGCTRDVIFISGLPANTSTERLDILDDERRVTGFSIIGGEHRLTNYKSVTTVHRFEKENRIWTVVLESYVVDMPEGNSEDDTRMVADTVVKLNLQKLATVAEAMARNSGDGSGSQVT
B4: PYR1^CA4: PYR1 quadruple mutant (H60P, V83F, F159V, M158I) (protein)
chain: B3 chain with M164I
B5: PYL2^CA4: PYL2 mutant (H65P, V87F, M1641, F165V) (protein)
chain: HHHHHHMSSSPAVKGLTDEEQKTLEPVIKTYHQFEPDPTTCTSLITQRIHAPASVVWPLIRRFDNPERYKPFVKRCRLISGDGDVGSVREVTFISGLPASTSTERLEFVDDDHRVLSFRVVGGEHRLKNYKSVTSVNEFLNQDSGKVYTVVLESYTVDIPEGNTEEDTKIVVDTVVKLNLQKLGVAATSAPMHDDE

Changes are numbered by the printed parent chain. Names and notes keep the numbering of the source.

One assay has as its system HAB1. In words: In vitro PP2C phosphatase (pNPP) receptor activation assay with HAB1. The note with it: 600 nM GST-HAB1, 0-4800 nM receptor, no ABA. The assay is classed as biochemical, Arabidopsis. The procedure: Recombinant receptor proteins were produced as follows: Coding sequences were cloned into pET28 yielding 6×HIS (SEQ ID NO:173) fusions proteins and transformed into E. coli expression strain BL21. […]. Cells were stored at −80° C. before purification. After thawing, cells were sonicated on ice five times for 30 sec with 30 sec resting intervals. A cleared lysate was obtained after centrifugation at 12,000×g for 10 min and applied to 1 ml of Ni-NTA column (Qiagen) and washed with 20 column volumes of Buffer A containing 30 mM imidazole. Bound protein was eluted with 10 ml of Buffer A with 250 mM imidazole. The elutate was dialyzed against TBS. The purified recombinant proteins were then used together with recombinant phosphatases in receptor assays. In these assays, receptor activity is indicated by inhibition of phosphatase activity, as inferred from initial reaction velocities for GST-HAB1 mediated hydrolysis of the synthetic phosphatase substrate pNPP. Reactions contained 600 nM GST-HAB1 and either 0, 600, 1200, 2400 or 4800 nM 6×His-PYR1 or variants in a reaction buffer consisting of 33 mM Tris-OAc, pH 7.9, 66 mM KOAc, 0.1% BSA, 25 mM Mn(OAc)2, 50 mM pNPP. To infer the level of receptor activation with respect to fully activated wild type receptor, control reactions were also conducted using saturating levels of (+)-ABA (10 μM), and 600 nM wild type PYR1 and HAB1. Immediately after mixing proteins and substrates, reactions were monitored for hydrolysis of pNPP at A405 at ˜10 second intervals over 20 minutes using a Wallac plate reader. Reaction progressions were plotted, initial velocities calculated and converted to specific activities using a standard curve for 4-nitrophenol made in the same buffer system volumes/plate reader used for enzymatic reaction measurements. The values shown are expressed as %-control phosphatase activity levels as measured in the absence of receptor protein. The average specific activity level of GST-HAB1 utilized in our experiments was 4000 μmol/min/mg, when assayed on the phosphatase substrate pNPP in the absence of PYR1 or other receptors, as described using the methods above.
(§1) Full length ABI1 and ABI2 were cloned into a modified pSUMO vector (LifeSensors Inc, USA) vector yielding 6×His-SUMO fusion proteins; GST-HAB1 was expressed and purified as previously described (Park et al., 2009). Mutant receptors were cloned into pET28 yielding 6×His-fusion proteins. […]. The cultures were pre-incubated 2 hours at 30° C. and, for PP2C expression, media was supplemented with 4 mM MnCl2 one hour after inoculation. After pre-incubation, IPTG was added (1 mM) and cells were induced at 15° C. for 16 hours, after which they were collected by centrifugation, resuspended in 5 ml Buffer A (50 mM NaH2PO4, 300 mM NaCl) +10 mM imidazole, pH 8.0 and stored at −80° C. For purification, cells were thawed, sonicated on ice (60 seconds) and a cleared lysate was then applied a 1 ml-bed volume column of Ni-NTA (Qiagen, USA), washed with 20 column volumes of Buffer A+30 mM imidazole and bound protein eluted with 1 ml of Buffer A+250 mM imidazole. For receptors, the elutate was dialyzed against TBS and for PP2Cs, fusion proteins were desalted by passage over a Sephadex G50 column.
The purified receptors and phosphatases were then used in receptor assays where receptor activation is indicated by inhibition of phosphatase activity, as inferred from initial reaction velocities for PP2C-mediated hydrolysis of the synthetic phosphatase substrate pNPP in reactions containing 600 nM PP2C and either 0, 600, 1200, 2400 or 4800 nM receptor. The receptor assay buffer consisted of 33 mM Tris-OAc, pH 7.9, 66 mM KOAc, 0.1% BSA, 25 mM Mn(OAc)2, 0.1%13-ME and 50 mM pNPP. Immediately after mixing proteins and substrates, reactions were monitored for hydrolysis of pNPP at A405 at ˜2 minutes intervals using a Wallac plate reader. […]
Consider B1, for which the “basal receptor activity (inhibition of HAB1 phosphatase activity in the absence of ABA)” value is reported as “highly activated in the absence of ABA”.

With B2, the “basal receptor activity (inhibition of HAB1 phosphatase activity in the absence of ABA)” value is “increase basal activity of receptors”.

Take B3: the “basal receptor activity (inhibition of HAB1 phosphatase activity in the absence of ABA)” value is recorded as “dramatically increased basal PYR1 activity”.

In the case of B4, the “basal receptor activity (inhibition of HAB1 phosphatase activity in the absence of ABA)” value is listed as “dramatically increased basal PYR1 activity”.

Consider B5, for which the “basal receptor activity (inhibition of HAB1 phosphatase activity in the absence of ABA)” value is listed as “highly activated in the absence of ABA”.

The target of another assay is T1, ABI2 (Arabidopsis thaliana, UniProt O04719).
T1 construct: Full length ABI1 and ABI2 were cloned into a modified pSUMO vector; made in house; host or cells: E. coli BL21 (DE3) pLysS
T1 sequence (O04719 1-423): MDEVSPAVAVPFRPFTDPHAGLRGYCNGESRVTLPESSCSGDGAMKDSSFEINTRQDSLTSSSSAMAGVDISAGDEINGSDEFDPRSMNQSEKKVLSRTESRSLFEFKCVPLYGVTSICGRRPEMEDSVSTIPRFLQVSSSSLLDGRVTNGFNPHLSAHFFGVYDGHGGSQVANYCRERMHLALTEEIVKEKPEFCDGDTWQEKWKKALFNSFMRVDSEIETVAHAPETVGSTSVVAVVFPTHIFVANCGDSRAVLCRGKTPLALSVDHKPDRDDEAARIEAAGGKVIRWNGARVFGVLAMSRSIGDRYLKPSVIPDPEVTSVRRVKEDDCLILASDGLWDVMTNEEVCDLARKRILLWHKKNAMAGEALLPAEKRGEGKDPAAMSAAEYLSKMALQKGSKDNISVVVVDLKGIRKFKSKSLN
Description: In vitro PP2C phosphatase (pNPP) receptor activation assay with ABI2. The note with it: 600 nM PP2C, 0-4800 nM receptor, no ABA. It is filed as biochemical. The procedure:
as §1
(§2) The purified receptors and phosphatases were then used in receptor assays where receptor activation is indicated by inhibition of phosphatase activity, as inferred from initial reaction velocities for PP2C-mediated hydrolysis of the synthetic phosphatase substrate pNPP in reactions containing 600 nM PP2C and either 0, 600, 1200, 2400 or 4800 nM receptor. The receptor assay buffer consisted of 33 mM Tris-OAc, pH 7.9, 66 mM KOAc, 0.1% BSA, 25 mM Mn(OAc)2, 0.1%13-ME and 50 mM pNPP. Immediately after mixing proteins and substrates, reactions were monitored for hydrolysis of pNPP at A405 at ˜2 minutes intervals using a Wallac plate reader. Reaction progressions were plotted, initial velocities calculated and converted to specific activities by comparison to a standard curve for 4-nitrophenol made in the same buffer system. PP2C activity values shown in figures are expressed as %-control phosphatase activity levels, as measured under identical reaction conditions in the absence of receptor protein. The average specific activity level of GST-HAB1, 6×His-SUMO-ABI1 and 6×His-SUMO-ABI2 utilized in our experiments was 4500 (GST-PP2C) or 2500 (SUMO-PP2C) μmol/min/mg, when assayed using the phosphatase substrate pNPP in the absence of PYR1 or other receptors.
Consider B1, for which the “constitutive receptor activity on ABI2 in the absence of ABA” value (“constitutive receptor activity on ABI2” below) is listed as “active towards multiple PP2Cs”.

For B3, the “constitutive receptor activity on ABI2” value was “interact with ABI1 and ABI2”.

As for B4, the “constitutive receptor activity on ABI2” value was “interact with ABI1 and ABI2”.

Consider B5, for which the “constitutive receptor activity on ABI2” value is listed as “active towards multiple PP2Cs”.

The target in a further assay is T2, ABI1 (Arabidopsis thaliana, UniProt P49597).
T2 construct: Full length ABI1 and ABI2 were cloned into a modified pSUMO vector; made in house; host or cells: E. coli BL21 (DE3) pLysS
T2 sequence (P49597 1-434): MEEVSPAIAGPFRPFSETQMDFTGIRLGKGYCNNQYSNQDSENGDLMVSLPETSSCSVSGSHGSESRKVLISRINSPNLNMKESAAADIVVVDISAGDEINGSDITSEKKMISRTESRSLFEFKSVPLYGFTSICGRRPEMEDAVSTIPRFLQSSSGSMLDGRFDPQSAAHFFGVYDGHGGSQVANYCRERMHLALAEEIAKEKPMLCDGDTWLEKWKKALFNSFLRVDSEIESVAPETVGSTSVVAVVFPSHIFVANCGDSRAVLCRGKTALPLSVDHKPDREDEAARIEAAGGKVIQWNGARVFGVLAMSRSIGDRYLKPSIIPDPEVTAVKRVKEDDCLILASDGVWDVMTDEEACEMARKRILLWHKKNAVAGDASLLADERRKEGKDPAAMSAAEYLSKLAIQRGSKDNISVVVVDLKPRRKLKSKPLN
In words: In vitro PP2C phosphatase (pNPP) receptor activation assay with ABI1. It is filed as biochemical. The note with it: 600 nM PP2C, 0-4800 nM receptor, no ABA. The procedure: as §1, §2
With B1, the “constitutive receptor activity on ABI1 in the absence of ABA” value (shortened to “constitutive receptor activity on ABI1”) is listed as “active towards multiple PP2Cs”.

B3: the “constitutive receptor activity on ABI1” value was “interact with ABI1 and ABI2”.

Take B4: the “constitutive receptor activity on ABI1” value was “interact with ABI1 and ABI2”.

B5: the “constitutive receptor activity on ABI1” value is “active towards multiple PP2Cs”.
